Holding throughout (assay): SPR, Biacore T200, 25 C; FVII(a) variant captured on anti-Gla Ab 4F6, mAb0842(OA) injected
For orientation: Surface plasmon resonance follows binding to a sensor surface in real time, without labels.

The target in one assay is T1, FVII(a) variant M391A (human, UniProt P08709 61-466).
T1 construct: hFVII alanine variant in cell culture supernatant
T1 sequence: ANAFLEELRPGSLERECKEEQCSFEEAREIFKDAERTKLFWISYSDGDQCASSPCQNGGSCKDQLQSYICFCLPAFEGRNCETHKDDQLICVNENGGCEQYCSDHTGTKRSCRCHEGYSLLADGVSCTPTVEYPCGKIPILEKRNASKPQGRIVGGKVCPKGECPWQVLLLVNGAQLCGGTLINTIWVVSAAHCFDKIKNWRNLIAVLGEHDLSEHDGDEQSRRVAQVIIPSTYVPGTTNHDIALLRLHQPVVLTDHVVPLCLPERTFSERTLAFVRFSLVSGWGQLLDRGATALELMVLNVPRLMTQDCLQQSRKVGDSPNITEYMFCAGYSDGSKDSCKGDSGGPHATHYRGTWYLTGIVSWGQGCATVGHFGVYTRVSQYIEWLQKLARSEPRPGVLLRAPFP
How it is done: (§1) The running buffer was prepared by diluting 10-fold the 10×HBS-P buffer (supplied by GE Healthcare) and supplemented with 1 mg/ml BSA and 5 mM CaCl2 to give 10 mM HEPES, 150 mM NaCl, 0.05% v/v Polysorbate 20, pH 7.4, 5 mM CaCl2, 1 mg/ml bovine serum albumin (BSA). […] Regeneration of the chip was achieved using 10 mM HEPES, 150 mM NaCl, 20 mM EDTA, 0.05 v/v Polysorbate 20, pH 7.4. Binding data were analysed according to a 1:1 Kinetic model and steady state analysis using BiaEvaluation 4.1 supplied by the manufacturer (Biacore AB, Uppsala, Sweden). Wherever possible, ka, kd and KD values from 1:1 kinetic fitting model are reported. […] An amino acid residue is considered a hot-spot residue if substitution of that amino acid residue with alanine results in an affinity reduction of ten (10) fold or more relative to the wild type.

Another assay addresses T2, FVII(a) variant G117A (human, UniProt P08709 61-466).
T2 construct: hFVII alanine variant in cell culture supernatant
T2 sequence: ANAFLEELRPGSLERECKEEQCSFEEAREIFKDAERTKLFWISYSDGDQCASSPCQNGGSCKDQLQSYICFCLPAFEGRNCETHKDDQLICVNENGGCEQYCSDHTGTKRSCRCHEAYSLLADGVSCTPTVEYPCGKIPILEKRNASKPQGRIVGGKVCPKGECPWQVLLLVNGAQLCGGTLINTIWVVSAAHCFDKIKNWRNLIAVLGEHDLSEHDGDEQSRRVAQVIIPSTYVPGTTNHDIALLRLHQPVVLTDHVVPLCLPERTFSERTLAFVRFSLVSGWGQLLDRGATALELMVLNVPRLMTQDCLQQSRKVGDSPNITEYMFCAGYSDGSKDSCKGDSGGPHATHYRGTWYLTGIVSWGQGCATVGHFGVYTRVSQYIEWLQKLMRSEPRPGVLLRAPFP
How it is done: as §1

Another assay has as its target T3, FVII(a) variant L120A (human, UniProt P08709 61-466).
T3 construct: hFVII alanine variant in cell culture supernatant
T3 sequence: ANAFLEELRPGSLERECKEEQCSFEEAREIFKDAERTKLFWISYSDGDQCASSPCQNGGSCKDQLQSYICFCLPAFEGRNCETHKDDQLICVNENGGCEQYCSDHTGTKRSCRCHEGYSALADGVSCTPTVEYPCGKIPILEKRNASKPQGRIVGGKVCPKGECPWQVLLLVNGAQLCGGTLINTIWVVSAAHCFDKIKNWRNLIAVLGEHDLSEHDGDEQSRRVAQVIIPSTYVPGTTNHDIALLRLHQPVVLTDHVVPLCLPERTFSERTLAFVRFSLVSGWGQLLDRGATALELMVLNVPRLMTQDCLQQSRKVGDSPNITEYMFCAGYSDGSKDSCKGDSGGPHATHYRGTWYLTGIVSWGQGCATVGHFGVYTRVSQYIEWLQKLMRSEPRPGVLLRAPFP
How it is done:
as §1

The next assay has as its target T4, FVII(a) variant T185A (human, UniProt P08709 61-466).
T4 construct: hFVII alanine variant in cell culture supernatant
T4 sequence: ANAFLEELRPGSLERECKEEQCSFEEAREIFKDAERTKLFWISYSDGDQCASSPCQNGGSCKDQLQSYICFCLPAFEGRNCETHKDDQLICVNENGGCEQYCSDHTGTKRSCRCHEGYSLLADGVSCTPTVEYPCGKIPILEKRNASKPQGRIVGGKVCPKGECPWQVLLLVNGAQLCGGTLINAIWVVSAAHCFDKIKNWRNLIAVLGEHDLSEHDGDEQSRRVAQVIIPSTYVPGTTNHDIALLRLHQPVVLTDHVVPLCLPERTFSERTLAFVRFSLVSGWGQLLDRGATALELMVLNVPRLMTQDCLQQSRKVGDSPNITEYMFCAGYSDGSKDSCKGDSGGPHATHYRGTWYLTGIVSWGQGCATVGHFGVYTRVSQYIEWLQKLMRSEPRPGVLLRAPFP
How it is done: as §1

A further assay addresses T5, FVII(a) variant E116A (human, UniProt P08709 61-466).
T5 construct: hFVII alanine variant in cell culture supernatant
T5 sequence: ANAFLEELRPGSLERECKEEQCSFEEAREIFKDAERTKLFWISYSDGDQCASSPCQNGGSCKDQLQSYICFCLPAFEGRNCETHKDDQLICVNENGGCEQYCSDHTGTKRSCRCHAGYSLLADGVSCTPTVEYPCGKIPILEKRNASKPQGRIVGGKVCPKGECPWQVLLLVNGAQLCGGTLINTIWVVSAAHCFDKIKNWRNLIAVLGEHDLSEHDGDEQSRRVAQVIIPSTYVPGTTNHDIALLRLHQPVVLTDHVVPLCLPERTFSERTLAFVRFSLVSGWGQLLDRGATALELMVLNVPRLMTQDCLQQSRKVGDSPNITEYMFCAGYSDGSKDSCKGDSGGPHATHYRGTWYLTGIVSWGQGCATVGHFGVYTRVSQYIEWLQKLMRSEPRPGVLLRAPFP
How it is done:
as §1

The results in this text go back to patent US20220064329A1 (Novo Nordisk, published 2022).

B1: mAb0842(OA) (antibody, human IgG4 S228P, kappa)
heavy: QVQLQESGPGLVKPSQTLSLTCTVSGYSISSDSAWSWIRQPPGKGLEWIGYIQYSGSTNYNPSLKSRVTISRDTSKNQFSLKLSSVTAADTAVYYCARSVNYYGNSFAVGYWGQGTLVTVSSASTKGPSVFPLAPCSRSTSESTAALGCLVKDYFPEPVTVSWNSGALTSGVHTFPAVLQSSGLYSLSSVVTVPSSSLGTKTYTCNVDHKPSNTKVDKRVESKYGPPCPPCPAPEFLGGPSVFLFPPKPKDTLMISRTPEVTCVVVDVSQEDPEVQFNWYVDGVEVHNAKTKPREEQFNSTYRVVSVLTVLHQDWLNGKEYKCKVSNKGLPSSIEKTISKAKGQPREPQVYTLPPSQEEMTKNQVSLSCAVKGFYPSDIAVEWESNGQPENNYKTTPPVLDSDGSFFLVSRLTVDKSRWQEGNVFSCSVMHEALHNHYTQKSLSLSLGK
light: EIVLTQSPATLSLSPGERATLSCRASQGISDYLHWYQQKPGEAPRLLIKYTSQPATGIPARFSGSGSGTDFTLTISSLEPEDFAVYYCQNGHSFPLTFGQGTKLEIKRTVAAPSVFIFPPSDEQLKSGTASVVCLLNNFYPREAKVQWKVDNALQSGNSQESVTEQDSKDSTYSLSSTLTLSKADYEKHKVYACEVTHQGLSSPVTKSFNRGEC
chain: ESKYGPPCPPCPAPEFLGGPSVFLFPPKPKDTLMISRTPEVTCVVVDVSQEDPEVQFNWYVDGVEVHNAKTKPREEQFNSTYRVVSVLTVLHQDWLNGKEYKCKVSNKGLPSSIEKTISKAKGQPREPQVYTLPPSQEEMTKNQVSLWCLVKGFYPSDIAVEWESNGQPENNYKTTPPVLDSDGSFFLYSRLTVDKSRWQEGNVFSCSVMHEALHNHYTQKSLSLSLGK
notes: also called monovalent humanized 11F2 antibody; one-armed anti-FVII(a) antibody
B1: the Kd with FVII(a) variant M391A turned out to be 0.25 nM; with FVII(a) variant G117A, 0.31 nM; with FVII(a) variant L120A, 0.6 nM; with FVII(a) variant T185A it was 1.01 nM; with FVII(a) variant E116A, 0.5 nM.

A word on the Kd: it is a measure of binding affinity in units of concentration. Low values mean a tighter complex, high ones a looser complex.
